Assay results taken from patent US20230051266A1 (ABL BIO, published 2023).

Tests used:
[1] = biological target: T1, human 4-1BB on GloResponse NFkB-luc2/4-1BB Jurkat cells (human, UniProt Q07011 24-255); test: cell-based or functional assay
human BCMA-Fc protein = biological target: T2, human BCMA-Fc protein (human, UniProt Q02223 1-54); test: DACE (dual antigen captured ELISA): plate coated with human BCMA-Fc, bispecific antibody titrated, then human 4-1BB-His; Abs at 450 nm
T2 construct: Coated antigen of the DACE
T2 sequence: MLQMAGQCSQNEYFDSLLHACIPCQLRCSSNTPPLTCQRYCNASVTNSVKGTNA

Recombinant Human BCMA [2] = biological target: T3, Recombinant Human BCMA (human, UniProt Q02223 1-54); test: SPR, bispecific antibody on Protein A chip, antigen flowed
T3 construct: also called hBCMA; recombinant BCMA
T3 sequence: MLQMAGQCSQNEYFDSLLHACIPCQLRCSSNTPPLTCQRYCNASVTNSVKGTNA
Method: In the SPR experiment, the anti-BCMA/anti-4-1BB bispecific antibodies obtained in Example 3-5 were individually captured on flow-cells 2, 3 and 4, keeping the flow-cell 1 as reference, on a Protein A Chip on which an anti-BCMA/anti-4-1BB Bispecific antibody (5D5M4(NA)×41B01 M12 or 5A6M6(NA)×41B01 M12) had been immobilized by amine coupling. Recombinant Human BCMA or Human 4-1BB protein was flowed across the chip at concentration range from 100 nM to 6.25 nM for human BCMA or 250 nM to 15.625 nM for human 4-1BB and 0.78 nM at […] for 300 seconds, followed by a dissociation phase of 400 seconds. Regeneration was performed with 10 mM Glycine-HCl (pH 2.0).

[3] = biological target: T4, Recombinant Human 4-1BB protein (human, UniProt Q07011 24-186); test: BLI, Octet Red 96
T4 construct: also called h4-1BB; 4-1BB antigen
Source text: To explore the binding kinetics of the humanized antibody, this example performed the affinity ranking by using Octet Red 96.

[4] = biological target: T5, human BCMA on cells (CHOK1-hBCMA; H929 endogenous BCMA) (human, UniProt Q02223 1-184); test: FACS, 100 nM antibody, H929 cells
T5 construct: Cell-surface BCMA in FACS; also called mammalian expressed BCMA; native antigen
T5 sequence: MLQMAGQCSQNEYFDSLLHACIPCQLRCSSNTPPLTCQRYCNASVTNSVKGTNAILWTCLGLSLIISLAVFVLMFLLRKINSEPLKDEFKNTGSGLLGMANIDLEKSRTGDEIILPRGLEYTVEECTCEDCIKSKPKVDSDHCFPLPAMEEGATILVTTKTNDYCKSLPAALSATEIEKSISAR
Method: (§1) To evaluate the antigen binding property, the antibody candidates were analyzed for their bindings to BCMA expressed cells by FACS. Briefly, CHOK1 expressing human BCMA (CHOK1-hBCMA) or H929 expressing endogenous BCMA cells were treated with the 100 nM of indicated antibodies at 4° C. for 1 hr. CHOK1 cells were used for BCMA-negative control. After washing by FACS buffer (1% (w/v) BSA in PBS), cells were incubated with the FTTC-anti-human IgG antibody at 4° C. for 1 hr and then subjected to FACS analysis. As shown in FIGS. 2d-2f, the anti-BCMAx4-1BB antibodies bind to BCMA expressed CHOK1-hBCMA and H929 cell lines but not BCMA negative CHOK1.

[5] = biological target: T1, human 4-1BB on GloResponse …; test: cell-based or functional assay; remark: listed apart in the source
[6] = biological target: T5, human BCMA on cells (CHOK1-hBCMA; H929 …); test: FACS, 100 nM antibody, CHOK1-hBCMA cells
Method: as §1

[7] = biological target: T1, human 4-1BB on GloResponse …; test: cell-based or functional assay; remark: listed apart in the source
Recombinant Human BCMA [8] = biological target: T3, Recombinant Human BCMA; test: single clone phage ELISA on coated recombinant BCMA
Method: Specifically, the phage pool obtained according to Example 1-2 was sequentially diluted, and cultured on a solid medium containing LB-tetracycline/cabenicillin to obtain single colonies. Each colony was cultured on a 96-deep well plate so that OD600 was from 0.5 to 0.7. 20 MOI of helper phage was added to each well, and reacted at 37° C. for 1 hour. Thereafter, kanamycin was added to each well and incubated overnight at 30° C. On the next day, the culture was centrifuged and the supernatant thereof was collected, and then, ELISA was performed to select BCMA-specific phages. Each well of the ELISA plate was coated with 100 ng of recombinant BCMA, and then incubated with PBS-B (3% BSA containing PBS) to prevent nonspecific binding. Thereafter, the plate was washed with PBS. The prepared single clone phage was added to each well and incubated at 37° C. for 1 hour, and the plate was washed three times with PBS-T. For detecting the bounded phages, horseradish peroxidase (HRP) conjugated anti-hemagglutinin (HA) antibody was added to each well. After washing step with PBS-T, tetramethylbenzidine (TMB, Sigma, T0440) was added. Clones, which are with an absorbance that is 0.5 or more at the wavelength of 450 nm and also the absorbance is at least 5 times greater than that of the control with anti-HA HRP alone, were selected. Four antibody clones (B58, 5B5, 5D5, and 5A6), which specifically bind to human BCMA, were selected.

T1 sequence (Q07011 24-255): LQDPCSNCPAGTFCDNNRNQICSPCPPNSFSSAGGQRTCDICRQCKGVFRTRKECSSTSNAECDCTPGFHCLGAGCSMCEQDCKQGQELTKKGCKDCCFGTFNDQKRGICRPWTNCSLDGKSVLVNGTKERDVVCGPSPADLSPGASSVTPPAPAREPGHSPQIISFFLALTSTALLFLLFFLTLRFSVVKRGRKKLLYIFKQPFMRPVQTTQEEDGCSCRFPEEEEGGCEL

B1: 5A6(NA)x41B01 M12 (bispecific antibody, human IgG1, lambda, N297A)
heavy: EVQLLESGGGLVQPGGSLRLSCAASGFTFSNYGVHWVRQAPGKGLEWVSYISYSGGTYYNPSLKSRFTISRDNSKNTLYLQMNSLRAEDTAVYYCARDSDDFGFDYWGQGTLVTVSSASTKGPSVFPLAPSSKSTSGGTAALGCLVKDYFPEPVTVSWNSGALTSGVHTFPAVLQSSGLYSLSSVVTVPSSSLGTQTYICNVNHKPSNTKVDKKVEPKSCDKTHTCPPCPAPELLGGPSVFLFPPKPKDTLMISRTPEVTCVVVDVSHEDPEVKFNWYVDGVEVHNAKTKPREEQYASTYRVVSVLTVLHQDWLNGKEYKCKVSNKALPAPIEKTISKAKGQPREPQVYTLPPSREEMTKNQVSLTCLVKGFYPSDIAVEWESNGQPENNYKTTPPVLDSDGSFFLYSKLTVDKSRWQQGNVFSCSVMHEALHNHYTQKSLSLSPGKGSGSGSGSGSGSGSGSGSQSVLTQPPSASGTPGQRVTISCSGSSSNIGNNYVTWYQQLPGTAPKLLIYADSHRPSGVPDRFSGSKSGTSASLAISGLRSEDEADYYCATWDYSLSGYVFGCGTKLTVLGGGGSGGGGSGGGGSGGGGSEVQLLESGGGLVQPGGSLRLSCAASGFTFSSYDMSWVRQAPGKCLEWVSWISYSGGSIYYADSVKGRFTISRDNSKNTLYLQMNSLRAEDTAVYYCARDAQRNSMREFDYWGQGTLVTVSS
light: QSVLTQPPSASGTPGQRVTISCQGDSLRSYYVNWYQQLPGTAPKLLIYDHSKRPTGVPDRFSGSKSGTSASLAISGLRSEDEADYYCQSYDSSTVVFGGGTKLTVLGQPKAAPSVTLFPPSSEELQANKATLVCLISDFYPGAVTVAWKADSSPVKAGVETTTPSKQSNNKYAASSYLSLTPEQWKSHRSYSCQVTHEGSTVEKTVAPAECS
notes: also called 5A6(NA)x41B01 M12:WT; 5A6WT(NA)x41B01 M12
In vitro 4-1BB activation (reporter bioassay) with H929 cells, EC50 [1]: 0.459 nM | In vitro 4-1BB activation (reporter bioassay) with MM1S cells, EC50 [1]: 2.26 nM | EC50 (read off the curve) (human BCMA-Fc protein): ~0.5 nM

B2: 5A6M6(NA)x41B01 M12 (bispecific antibody, human IgG1, lambda, N297A)
heavy: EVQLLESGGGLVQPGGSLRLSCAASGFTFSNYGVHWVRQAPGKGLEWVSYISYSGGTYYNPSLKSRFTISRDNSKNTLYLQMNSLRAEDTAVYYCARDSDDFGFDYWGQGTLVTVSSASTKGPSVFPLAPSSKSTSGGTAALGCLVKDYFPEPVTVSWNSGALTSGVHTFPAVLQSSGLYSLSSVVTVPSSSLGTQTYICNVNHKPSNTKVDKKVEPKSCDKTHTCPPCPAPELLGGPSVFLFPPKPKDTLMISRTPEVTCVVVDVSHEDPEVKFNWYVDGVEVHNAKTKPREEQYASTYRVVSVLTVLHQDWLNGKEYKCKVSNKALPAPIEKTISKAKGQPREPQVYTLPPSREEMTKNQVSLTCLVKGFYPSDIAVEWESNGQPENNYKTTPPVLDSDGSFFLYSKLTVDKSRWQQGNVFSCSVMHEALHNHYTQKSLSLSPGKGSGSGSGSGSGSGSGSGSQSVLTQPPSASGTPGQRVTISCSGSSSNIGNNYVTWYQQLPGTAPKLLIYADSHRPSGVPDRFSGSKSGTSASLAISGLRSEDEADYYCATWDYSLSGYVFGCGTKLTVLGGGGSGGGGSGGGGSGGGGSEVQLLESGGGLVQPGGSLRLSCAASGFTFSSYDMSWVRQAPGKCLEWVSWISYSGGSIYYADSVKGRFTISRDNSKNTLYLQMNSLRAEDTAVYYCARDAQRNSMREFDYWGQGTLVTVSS
light: QSVLTQPPSASGTPGQRVTISCQGESLRSYYVNWYQQLPGTAPKLLIYDHSKRPTGVPDRFSGSKSGTSASLAISGLRSEDEADYYCQSYDASTVVFGGGTKLTVLGQPKAAPSVTLFPPSSEELQANKATLVCLISDFYPGAVTVAWKADSSPVKAGVETTTPSKQSNNKYAASSYLSLTPEQWKSHRSYSCQVTHEGSTVEKTVAPAECS
notes: IgG1 N297A-(GS)9-scFv
In vitro 4-1BB activation (reporter bioassay) with H929 cells, EC50 [1]: 0.165 nM | In vitro 4-1BB activation (reporter bioassay) with MM1S cells, EC50 [1]: 1.98 nM | EC50 (read off the curve) (human BCMA-Fc protein): ~0.3 nM | Kd (Recombinant Human BCMA [2]): 22.6 nM | koff (Recombinant Human BCMA [2]): 0.0119 s⁻¹ | kon (Recombinant Human BCMA [2]): 527000 M⁻¹ s⁻¹

B3: 41B01 (anti-4-1BB monoclonal antibody) (antibody, V domains shown)
VH: EVQLLESGGGLVQPGGSLRLSCAASGFTFSSYDMSWVRQAPGKGLEWVSWISYSGGSIYYADSVKGRFTISRDNSKNTLYLQMNSLRAEDTAVYYCARDGQRNSMREFDYWGQGTLVTVSS
VL: QSVLTQPPSASGTPGRRVTISCSGSSSNIGNNYVTWYQQLPGTAPKLLIYADSHRPSGVPDRFSGSKSGTSASLAISGLRSEDEADYYCATWDYSLSGYVFGGGTKLTVL
notes: Tested as a human IgG type antibody (detected with anti-human IgG); also called 1A10
Kd [3]: 0.18 nM | koff [3]: 0.000119 s⁻¹ | kon [3]: 658000 M⁻¹ s⁻¹

B4: 41B02 (anti-4-1BB monoclonal antibody) (antibody, V domains shown)
VH: EVQLLESGGGLVQPGGSLRLSCAASGFTFSGYDMSWVRQAPGKGLEWVSVIYPDDGNTYYADSVKGRFTISRDNSKNTLYLQMNSLRAEDAAVYYCAKHGGQKPTTKSSSAYGMDGWGQGTLVTVSS
VL: QSVLTQPPSASGTPGRRVTISCSGSSSNIGNNYVTWYQQLPGTAPKLLIYADSHRPSGVPDRFSGSKSGTSASLAISGLRSEDEADYYCATWDYSLSGYVFGGGTKLTVL
notes: Tested as a human IgG type antibody; also called 1A12
Kd [3]: 1.01 nM | koff [3]: 0.000603 s⁻¹ | kon [3]: 595000 M⁻¹ s⁻¹

B5: 5D5(NA)x41B01 (bispecific antibody, human IgG1, kappa, N297A)
heavy: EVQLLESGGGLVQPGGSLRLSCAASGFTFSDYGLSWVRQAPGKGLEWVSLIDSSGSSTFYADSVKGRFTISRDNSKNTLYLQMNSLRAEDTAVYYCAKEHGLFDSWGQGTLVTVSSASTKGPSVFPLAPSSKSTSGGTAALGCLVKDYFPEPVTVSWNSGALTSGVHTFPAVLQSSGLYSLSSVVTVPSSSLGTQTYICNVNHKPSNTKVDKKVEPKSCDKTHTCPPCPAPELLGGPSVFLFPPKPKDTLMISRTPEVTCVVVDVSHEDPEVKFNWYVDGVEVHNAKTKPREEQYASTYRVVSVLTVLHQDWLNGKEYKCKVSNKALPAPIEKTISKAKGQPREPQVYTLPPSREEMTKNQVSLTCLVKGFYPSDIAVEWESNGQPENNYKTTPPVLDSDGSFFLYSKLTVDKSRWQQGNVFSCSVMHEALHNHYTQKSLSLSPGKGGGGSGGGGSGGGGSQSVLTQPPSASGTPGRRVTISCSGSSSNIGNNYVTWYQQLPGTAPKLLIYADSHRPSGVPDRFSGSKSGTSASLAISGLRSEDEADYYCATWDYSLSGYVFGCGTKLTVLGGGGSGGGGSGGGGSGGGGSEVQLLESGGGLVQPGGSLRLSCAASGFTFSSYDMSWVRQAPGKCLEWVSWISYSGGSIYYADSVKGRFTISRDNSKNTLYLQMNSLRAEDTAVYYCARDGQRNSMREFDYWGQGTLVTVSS
light: EIVLTQSPGTLSLSPGERATLSCKASQDIDDDINWYQQKPGQAPRLLIYDASLRATGIPDRFSGSGSGTDFTLTISRLEPEDFAVYYCQQSLRTPITFGQGTKLEIKRTVAAPSVFIFPPSDEQLKSGTASVVCLLNNFYPREAKVQWKVDNALQSGNSQESVTEQDSKDSTYSLSSTLTLSKADYEKHKVYACEVTHQGLSSPVTKSFNRGEC
notes: IgG1 N297A-scFv; also called 5D5(NA) x41B01 (1A10)
quantified FACS signal (name not given) [4]: 17.9 | 4-1BB reporter bioassay (NFkB-luc2/4-1BB Jurkat) with CHOK1-hBCMA cells, EC50 [5]: 0.0691 nM | quantified FACS signal (name not given) [6]: 579 | 4-1BB reporter bioassay (NFkB-luc2/4-1BB Jurkat) with H929 cells, EC50 [7]: 5.35 nM

B6: 5B5(NA)x41B01 (bispecific antibody, human IgG1, kappa, N297A)
heavy: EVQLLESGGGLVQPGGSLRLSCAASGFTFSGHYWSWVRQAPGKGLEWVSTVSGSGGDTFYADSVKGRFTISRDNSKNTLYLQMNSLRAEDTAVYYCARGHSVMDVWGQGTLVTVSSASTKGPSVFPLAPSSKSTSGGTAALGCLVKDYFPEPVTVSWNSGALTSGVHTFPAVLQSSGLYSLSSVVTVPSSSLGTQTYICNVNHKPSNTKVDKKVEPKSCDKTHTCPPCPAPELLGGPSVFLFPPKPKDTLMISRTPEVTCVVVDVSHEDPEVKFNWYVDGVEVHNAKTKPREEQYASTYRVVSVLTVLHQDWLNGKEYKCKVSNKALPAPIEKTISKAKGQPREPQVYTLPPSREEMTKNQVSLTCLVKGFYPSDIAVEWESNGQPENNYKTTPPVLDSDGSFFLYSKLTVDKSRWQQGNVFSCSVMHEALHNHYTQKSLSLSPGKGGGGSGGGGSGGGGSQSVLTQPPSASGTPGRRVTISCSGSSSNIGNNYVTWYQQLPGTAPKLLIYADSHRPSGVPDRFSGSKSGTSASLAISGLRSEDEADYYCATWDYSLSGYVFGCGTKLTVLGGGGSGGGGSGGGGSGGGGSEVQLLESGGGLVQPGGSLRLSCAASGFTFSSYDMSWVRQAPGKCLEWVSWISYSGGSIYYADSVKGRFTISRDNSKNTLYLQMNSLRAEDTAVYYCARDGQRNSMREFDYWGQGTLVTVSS
light: EIVLTQSPGTLSLSPGERATLSCRASQGIDSYVAWYQQKPGQAPRLLIYDASLRATGIPDRFSGSGSGTDFTLTISRLEPEDFAVYYCQQYNSWPITFGQGTKLEIKRTVAAPSVFIFPPSDEQLKSGTASVVCLLNNFYPREAKVQWKVDNALQSGNSQESVTEQDSKDSTYSLSSTLTLSKADYEKHKVYACEVTHQGLSSPVTKSFNRGEC
notes: IgG1 N297A-scFv; also called 5B5(NA) x41B01 (1A10)
quantified FACS signal (name not given) [4]: 17.6 | 4-1BB reporter bioassay (NFkB-luc2/4-1BB Jurkat) with CHOK1-hBCMA cells, EC50 [5]: 0.0316 nM | quantified FACS signal (name not given) [6]: 493 | 4-1BB reporter bioassay (NFkB-luc2/4-1BB Jurkat) with H929 cells, EC50 [7]: 5.76 nM

B7: 5D5(NA)x41B01 M12 (bispecific antibody, human IgG1, kappa, N297A)
heavy: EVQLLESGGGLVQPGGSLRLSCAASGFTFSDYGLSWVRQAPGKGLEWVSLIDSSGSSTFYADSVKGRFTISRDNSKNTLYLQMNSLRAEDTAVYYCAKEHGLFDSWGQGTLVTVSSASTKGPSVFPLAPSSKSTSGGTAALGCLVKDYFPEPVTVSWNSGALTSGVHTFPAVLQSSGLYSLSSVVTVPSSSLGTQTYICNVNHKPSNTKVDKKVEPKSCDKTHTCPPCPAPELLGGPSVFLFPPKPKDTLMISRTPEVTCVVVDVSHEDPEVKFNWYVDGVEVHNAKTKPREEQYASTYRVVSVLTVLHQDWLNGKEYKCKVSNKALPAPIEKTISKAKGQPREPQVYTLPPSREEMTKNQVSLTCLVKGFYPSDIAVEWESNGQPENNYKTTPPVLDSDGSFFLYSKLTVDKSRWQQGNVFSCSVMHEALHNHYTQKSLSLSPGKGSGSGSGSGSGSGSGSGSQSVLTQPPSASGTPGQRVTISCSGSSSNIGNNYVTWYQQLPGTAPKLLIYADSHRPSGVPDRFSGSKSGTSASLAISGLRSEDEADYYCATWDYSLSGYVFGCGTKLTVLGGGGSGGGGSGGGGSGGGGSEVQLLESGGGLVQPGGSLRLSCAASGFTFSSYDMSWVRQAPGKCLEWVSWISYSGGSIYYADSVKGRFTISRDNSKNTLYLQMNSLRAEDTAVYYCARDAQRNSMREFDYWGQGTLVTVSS
light: EIVLTQSPGTLSLSPGERATLSCKASQDIDDDINWYQQKPGQAPRLLIYDASLRATGIPDRFSGSGSGTDFTLTISRLEPEDFAVYYCQQSLRTPITFGQGTKLEIKRTVAAPSVFIFPPSDEQLKSGTASVVCLLNNFYPREAKVQWKVDNALQSGNSQESVTEQDSKDSTYSLSSTLTLSKADYEKHKVYACEVTHQGLSSPVTKSFNRGEC
notes: also called 5D5(NA)x41B01 M12:WT; 5D5WT(NA)x41B01 M12
In vitro 4-1BB activation (reporter bioassay) with H929 cells, EC50 [1]: 0.629 nM | In vitro 4-1BB activation (reporter bioassay) with MM1S cells, EC50 [1]: 2.66 nM | EC50 (read off the curve) (human BCMA-Fc protein): ~0.5 nM

B8: 5D5(NA)x41B02 (bispecific antibody, human IgG1, kappa, N297A)
heavy: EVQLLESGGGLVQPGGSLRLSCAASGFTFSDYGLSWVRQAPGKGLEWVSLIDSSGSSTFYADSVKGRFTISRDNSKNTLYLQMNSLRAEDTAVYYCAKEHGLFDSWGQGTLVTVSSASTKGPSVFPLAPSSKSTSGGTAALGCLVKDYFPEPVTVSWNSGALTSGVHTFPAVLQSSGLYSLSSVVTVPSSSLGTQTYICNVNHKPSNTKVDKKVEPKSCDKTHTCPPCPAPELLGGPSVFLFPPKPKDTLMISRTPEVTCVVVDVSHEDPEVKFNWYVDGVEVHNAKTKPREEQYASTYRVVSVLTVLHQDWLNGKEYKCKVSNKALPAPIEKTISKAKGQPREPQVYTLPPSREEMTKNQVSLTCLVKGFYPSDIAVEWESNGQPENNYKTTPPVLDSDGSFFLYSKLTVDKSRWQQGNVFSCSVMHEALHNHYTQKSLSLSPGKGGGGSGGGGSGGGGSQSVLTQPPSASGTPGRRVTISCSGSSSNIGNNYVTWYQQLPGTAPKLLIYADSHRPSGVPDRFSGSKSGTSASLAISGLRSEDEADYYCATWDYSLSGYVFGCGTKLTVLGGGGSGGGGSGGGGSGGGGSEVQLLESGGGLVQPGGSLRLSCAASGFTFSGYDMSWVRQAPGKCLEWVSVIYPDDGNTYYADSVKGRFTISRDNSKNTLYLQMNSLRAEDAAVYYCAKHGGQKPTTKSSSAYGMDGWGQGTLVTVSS
light: EIVLTQSPGTLSLSPGERATLSCKASQDIDDDINWYQQKPGQAPRLLIYDASLRATGIPDRFSGSGSGTDFTLTISRLEPEDFAVYYCQQSLRTPITFGQGTKLEIKRTVAAPSVFIFPPSDEQLKSGTASVVCLLNNFYPREAKVQWKVDNALQSGNSQESVTEQDSKDSTYSLSSTLTLSKADYEKHKVYACEVTHQGLSSPVTKSFNRGEC
notes: IgG1 N297A-scFv (VL-(G4S)4-VH); also called 5D5(NA) x41B02 (1A12)
quantified FACS signal (name not given) [4]: 20.2 | 4-1BB reporter bioassay (NFkB-luc2/4-1BB Jurkat) with CHOK1-hBCMA cells, EC50 [5]: 0.0314 nM | quantified FACS signal (name not given) [6]: 602 | 4-1BB reporter bioassay (NFkB-luc2/4-1BB Jurkat) with H929 cells, EC50 [7]: 10.9 nM

B9: 5D5M4(NA)x41B01 M12 (bispecific antibody, human IgG1, kappa, N297A)
heavy: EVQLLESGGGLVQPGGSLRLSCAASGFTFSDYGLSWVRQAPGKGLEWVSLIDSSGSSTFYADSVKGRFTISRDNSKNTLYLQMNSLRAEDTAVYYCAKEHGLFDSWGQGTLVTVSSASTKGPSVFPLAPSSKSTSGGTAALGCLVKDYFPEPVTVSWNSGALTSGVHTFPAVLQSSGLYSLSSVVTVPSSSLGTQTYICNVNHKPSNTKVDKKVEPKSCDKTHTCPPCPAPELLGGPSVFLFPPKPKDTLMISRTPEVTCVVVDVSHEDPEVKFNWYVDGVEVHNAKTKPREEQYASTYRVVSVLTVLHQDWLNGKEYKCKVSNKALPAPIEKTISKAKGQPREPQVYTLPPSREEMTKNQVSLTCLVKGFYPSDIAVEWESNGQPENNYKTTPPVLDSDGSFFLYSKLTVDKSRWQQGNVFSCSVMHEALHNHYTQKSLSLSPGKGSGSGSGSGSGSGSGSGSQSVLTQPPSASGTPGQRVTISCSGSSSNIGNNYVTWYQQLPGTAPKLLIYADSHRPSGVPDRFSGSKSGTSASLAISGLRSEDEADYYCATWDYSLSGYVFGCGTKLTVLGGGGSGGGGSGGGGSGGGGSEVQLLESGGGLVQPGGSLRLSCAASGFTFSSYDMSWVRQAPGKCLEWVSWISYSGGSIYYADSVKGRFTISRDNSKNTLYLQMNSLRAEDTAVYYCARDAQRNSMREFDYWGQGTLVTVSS
light: EIVLTQSPGTLSLSPGERATLSCKASQDIDDAINWYQQKPGQAPRLLIYDASLRATGIPDRFSGSGSGTDFTLTISRLEPEDFAVYYCQQSLRTPITFGQGTKLEIKRTVAAPSVFIFPPSDEQLKSGTASVVCLLNNFYPREAKVQWKVDNALQSGNSQESVTEQDSKDSTYSLSSTLTLSKADYEKHKVYACEVTHQGLSSPVTKSFNRGEC
notes: IgG1 N297A-(GS)9-scFv
In vitro 4-1BB activation (reporter bioassay) with H929 cells, EC50 [1]: 0.377 nM | In vitro 4-1BB activation (reporter bioassay) with MM1S cells, EC50 [1]: 2.41 nM | EC50 (read off the curve) (human BCMA-Fc protein): ~0.4 nM | Kd (Recombinant Human BCMA [2]): 16 nM | koff (Recombinant Human BCMA [2]): 0.065 s⁻¹ | kon (Recombinant Human BCMA [2]): 4.07e+06 M⁻¹ s⁻¹

B10: 5B5 (phage antibody clone) (scFv, V domains shown)
VH: EVQLLESGGGLVQPGGSLRLSCAASGFTFSGHYWSWVRQAPGKGLEWVSTVSGSGGDTFYADSVKGRFTISRDNSKNTLYLQMNSLRAEDTAVYYCARGHSVMDVWGQGTLVTVSS
VL: EIVLTQSPGTLSLSPGERATLSCRASQGIDSYVAWYQQKPGQAPRLLIYDASLRATGIPDRFSGSGSGTDFTLTISRLEPEDFAVYYCQQYNSWPITFGQGTKLEIK
binding result (Recombinant Human BCMA [8]): binds

B11: 5D5 (phage antibody clone) (scFv, V domains shown)
VH: EVQLLESGGGLVQPGGSLRLSCAASGFTFSDYGLSWVRQAPGKGLEWVSLIDSSGSSTFYADSVKGRFTISRDNSKNTLYLQMNSLRAEDTAVYYCAKEHGLFDSWGQGTLVTVSS
VL: EIVLTQSPGTLSLSPGERATLSCKASQDIDDDINWYQQKPGQAPRLLIYDASLRATGIPDRFSGSGSGTDFTLTISRLEPEDFAVYYCQQSLRTPITFGQGTKLEIK
binding result (Recombinant Human BCMA [8]): binds
